Biological target: T1, human PD-L1-Fc (R&D Systems) chimeric protein (human, UniProt Q9NZQ7 19-239)
T1 construct: Bought reagent; also called rhPD-L1-Fc; huPD-L1; Fc part of the bought chimera not given, not described
Assay: binding ELISA on coated human PD-L1 Fc ('Anti-PD-L1 ELISA')
Experimental: Briefly, human PD-L1 Fc (R&D Systems) chimeric protein was coated onto 96 well plates at 0.5 μg/mL in carbonate buffer. After saturation with 5% casein/PBS buffer, plates were washed and a dilution of conjugated AFFIMER® polypeptide or unconjugated control were incubated for 90 minutes. Plates were then washed, a biotinylated polyclonal anti-cystatin A antibody (R&D Systems) added, and the plates incubated for 1 hour. Plates were washed and bound AFFIMER® polypeptide was detected using streptavidin-HRP. After a last washing step, TMB was added and the plate was read at 450 nm.

T1 sequence (Q9NZQ7 19-239, change not shown): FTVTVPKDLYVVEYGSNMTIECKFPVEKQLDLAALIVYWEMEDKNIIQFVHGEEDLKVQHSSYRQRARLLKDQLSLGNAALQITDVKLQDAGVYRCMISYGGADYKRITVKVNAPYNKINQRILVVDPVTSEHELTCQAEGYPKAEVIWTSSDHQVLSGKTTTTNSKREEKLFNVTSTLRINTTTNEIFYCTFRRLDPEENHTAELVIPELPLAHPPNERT

EC50 (read off the curve) [nM]	Binder
~0.04	AVA04-251 BH-800 (designed binder, IRDye 800CW conjugated with maleimide chemistry (C-terminal cysteine construct), E. coli product) MIPRGLSEAKPATPEIQEIVDKVKPQLEEKTNETYGKLEAVQYKTQVLAREGRQDWVLSTNYYIKVRAGDNKYMHLKVFNGPWVPFPHQQLADRVLTGYQVDKNKDDELTGFAEAAAKEAAAKEAAAKEAAAKEAAAKEAAAKMIPRGLSEAKPATPEIQEIVDKVKPQLEEKTNETYGKLEAVQYKTQVLAREGRQDWVLSTNYYIKVRAGDNKYMHLKVFNGPWVPFPHQQLADRVLTGYQVDKNKDDELTGFC
~0.04	AVA04-251 BH-Cys (designed binder) single chain: MIPRGLSEAKPATPEIQEIVDKVKPQLEEKTNETYGKLEAVQYKTQVLAREGRQDWVLSTNYYIKVRAGDNKYMHLKVFNGPWVPFPHQQLADRVLTGYQVDKNKDDELTGFAEAAAKEAAAKEAAAKEAAAKEAAAKEAAAKMIPRGLSEAKPATPEIQEIVDKVKPQLEEKTNETYGKLEAVQYKTQVLAREGRQDWVLSTNYYIKVRAGDNKYMHLKVFNGPWVPFPHQQLADRVLTGYQVDKNKDDELTGFC
~0.02	AVA04-251 XT14-800 (designed binder, IRDye 800CW conjugated with maleimide chemistry (C-terminal cysteine construct)) MIPRGLSEAKPATPEIQEIVDKVKPQLEEKTNETYGKLEAVQYKTQVLAREGRQDWVLSTNYYIKVRAGDNKYMHLKVFNGPWVPFPHQQLADRVLTGYQVDKNKDDELTGFAEAAAKEAAAKEAAAKEAAAKEAAAKEAAAKMIPRGLSEAKPATPEIQEIVDKVKPQLEEKTNETYGKLEAVQYKTQVLAREGRQDWVLSTNYYIKVRAGDNKYMHLKVFNGPWVPFPHQQLADRVLTGYQVDKNKDDELTGFAEAAAKEAAAKEAAAKEAAAKEAAAKEAAAKMIPRGLSEAKPATPEIQEIVDKVKPQLEEKTNETYGKLEAVQYKTQVLANFFQRRWPGSTNYYIKVRAGDNKYMHLKVFNGPWKFRNTDRGADRVLTGYQVDKNKDDELTGFC
~0.02	AVA04-251 XT14-Cys (designed binder) single chain: MIPRGLSEAKPATPEIQEIVDKVKPQLEEKTNETYGKLEAVQYKTQVLAREGRQDWVLSTNYYIKVRAGDNKYMHLKVFNGPWVPFPHQQLADRVLTGYQVDKNKDDELTGFAEAAAKEAAAKEAAAKEAAAKEAAAKEAAAKMIPRGLSEAKPATPEIQEIVDKVKPQLEEKTNETYGKLEAVQYKTQVLAREGRQDWVLSTNYYIKVRAGDNKYMHLKVFNGPWVPFPHQQLADRVLTGYQVDKNKDDELTGFAEAAAKEAAAKEAAAKEAAAKEAAAKEAAAKMIPRGLSEAKPATPEIQEIVDKVKPQLEEKTNETYGKLEAVQYKTQVLANFFQRRWPGSTNYYIKVRAGDNKYMHLKVFNGPWKFRNTDRGADRVLTGYQVDKNKDDELTGFC
